According to doi:10.1101/597906:
Where two headings read alike, the source gives them in different places.

How the values were obtained:
polymerized microtubules [1] = test: single-molecule TIRF microscopy motility assay
polymerized microtubules [2] = test: single-molecule TIRF microscopy motility assay; remark: listed apart in the source

| Substance | landing rate (molecules bound to microtubules per length and time) (polymerized microtubules [1]) | landing rate (molecules bound to microtubules per length and time) (polymerized microtubules [2]) |
| --- | --- | --- |
| full-length human KIF1A(R350G) fused to a C-terminal mScarlet-strepII tag (from UniProt Q12756 1-1690) (natural protein) | 0.025 /μm/sec | – |
| full-length human KIF1A(V8M) fused to a C-terminal mScarlet-strepII tag (from UniProt Q12756 1-1690) (natural protein) | 0.039 /μm/sec | – |
| full-length human KIF1A fused to a C-terminal mScarlet-strepII tag (from UniProt Q12756 1-1690) (natural protein) | 0.002 /μm/sec | 0.012 /μm/sec |
| full-length human KIF1A(A255V) fused to a C-terminal mScarlet-strepII tag (from UniProt Q12756 1-1690) (natural protein) | 0.024 /μm/sec | – |
